The values that follow come from patent US20180362632A1 (published 2018).

First the molecules themselves.
B1: Hu23F4-6 (antibody, V domains shown)
VH: EVQLVQSGAEVKKPGATVKISCKVSGYTFTSHYLHWVQQAPGKGLEWMGWIFPGDDKTKYNEKFKGRVTITSDTSTDTAYMELSSLRSEDTAVYYCARGTKYLNWNFDVWGQGTTVTVSS
VL: DIQLTQSPSFLSASVGDRVTITCKANQNVGTTLAWYQQKPGKAPKALIYSASYRYSGVPSRFSGSGSGTEFTLTISSLQPEDFATYYCHQYTTYPLTFGGGTKVEIK
B2: 23F4 chimera (antibody, V domains shown)
VH: QVQLQQSGPELVKPGTSMKISCKTSDYTLTSHYLHWVKQRPGQGLEWIGWIFPGDDKTKYNEKFKGKATLTSDKTSNTAYMQLSSLTSEESAVYFCARGTKYLNWNFDVWGTGTTVTVSS
VL: DIVLTQPQKFLSTSVGDRVSVTCKANQNVGTTLAWYQQKPGQSPKALIYSASYRYSGVPDRFTGSGSGTDFTLTISNVQSEDLAEYFCHQYTTYPLTFGGGTKLEIK
B3: Hu23F4-35 (antibody, V domains shown)
VH: EVQLVQSGAEVKKPGASVKVSCKASGYTFTSHYLHWVRQAPGQGLEWIGWIFPGDDKTKYNEKFKGRATLTSDTSISTAYMELSRLRSDDTAVYYCARGTKYLNWNFDVWGQGTTVTVSS
VL: B1 VL with A43S, S60D, E70D, Y87F
B4: Hu23F4-27 (antibody, V domains shown)
VH: B3 VH with I48M, A68V, L70M
VL: B1 VL with A43S, S60D, E70D, Y87F
B5: Hu23F4-32 (antibody, V domains shown)
VH: B3 VH
VL: B1 VL with A46L
B6: Hu23F4-33 (antibody, V domains shown)
VH: B3 VH
VL: B1 VL
B7: Hu23F4-24 (antibody, V domains shown)
VH: B3 VH with I48M, A68V, L70M
VL: B1 VL with A46L
B8: Hu23F4-26 (antibody, V domains shown)
VH: B3 VH with I48M, A68V, L70M
VL: B1 VL with S60D, E70D
B9: Hu23F4-37 (antibody, V domains shown)
VH: B3 VH with G26D, F29L
VL: B1 VL
B10: Hu23F4-31 (antibody, V domains shown)
VH: B3 VH with I48M, A68V
VL: B1 VL with A43S, S60D, E70D, Y87F
B11: Hu23F4-23 (antibody, V domains shown)
VH: B3 VH with I48M, A68V, L70M, S72R
VL: B1 VL with A43S, S60D, E70D, Y87F
B12: Hu23F4-28 (antibody, V domains shown)
VH: B3 VH with I48M, A68V
VL: B1 VL with A46L
B13: Hu23F4-36 (antibody, V domains shown)
VH: B3 VH with G26D, F29L
VL: B1 VL with A46L
B14: Hu23F4-25 (antibody, V domains shown)
VH: B3 VH with I48M, A68V, L70M
VL: B1 VL
B15: Hu23F4-38 (antibody, V domains shown)
VH: B3 VH with G26D, F29L
VL: B1 VL with S60D, E70D
B16: Hu23F4-29 (antibody, V domains shown)
VH: B3 VH with I48M, A68V
VL: B1 VL
B17: Hu23F4-34 (antibody, V domains shown)
VH: B3 VH
VL: B1 VL with S60D, E70D
B18: Hu23F4-30 (antibody, V domains shown)
VH: B3 VH with I48M, A68V
VL: B1 VL with S60D, E70D
B19: Hu50C5-13 (antibody, V domains shown)
VH: EVQLVQSGAEVKKPGSSVKVSCKASGYIFSPYSIHWVRQAPGQGLEWIGYINPSTGYIEYNQHFKDRVTITADKSTSTAYMELRSLRSEDTAVYYCARGGDYEGYFDYWGQGTTVTVSS
VL: DIQMTQSPSSLSASVGDRVTITCRLNENIYSFLAWYQQKPGKAPKLLVYNAETLAEDVPSRFSGSGSGTDFTLTISSLQPEDFATYYCQQHYGTPYTFGGGTKVEIK
B20: Hu50C5-10 (antibody, V domains shown)
VH: B19 VH with I48M
VL: B19 VL with A43S, D70Q
B21: Hu50C5-12 (antibody, V domains shown)
VH: B19 VH
VL: B19 VL with D57G
B22: Hu50C5-5 (antibody, V domains shown)
VH: B19 VH with Y27G, I28T, I48M
VL: B19 VL with A43S, D70Q
B23: Hu50C5-11 (antibody, V domains shown)
VH: B19 VH
VL: B19 VL with V48I, D57G
B24: Hu50C5-7 (antibody, V domains shown)
VH: B19 VH with I48M
VL: B19 VL with D57G
B25: Hu50C5-9 (antibody, V domains shown)
VH: B19 VH with I48M
VL: B19 VL with D70Q
B26: Hu50C5-4 (antibody, V domains shown)
VH: B19 VH with Y27G, I28T, I48M
VL: B19 VL with D70Q
B27: Hu50C5-6 (antibody, V domains shown)
VH: B19 VH with I48M
VL: B19 VL with V48I, D57G
B28: Hu50C5-3 (antibody, V domains shown)
VH: B19 VH with Y27G, I28T, I48M
VL: B19 VL
B29: Hu50C5-1 (antibody, V domains shown)
VH: B19 VH with Y27G, I28T, I48M
VL: B19 VL with V48I, D57G
B30: Hu50C5-14 (antibody, V domains shown)
VH: B19 VH
VL: B19 VL with D70Q
B31: Hu50C5-2 (antibody, V domains shown)
VH: B19 VH with Y27G, I28T, I48M
VL: B19 VL with D57G
B32: Hu50C5-8 (antibody, V domains shown)
VH: B19 VH with I48M
VL: B19 VL
B33: Hu50C5-16 (antibody, V domains shown)
VH: B19 VH with V68T, I70L
VL: B19 VL with V48I, D57G
B34: Hu50C5-22 (antibody, V domains shown)
VH: B19 VH with S30T, V68T, I70L
VL: B19 VL with D57G
B35: Hu50C5-19 (antibody, V domains shown)
VH: B19 VH with V68T, I70L
VL: B19 VL with D70Q
B36: Hu50C5-17 (antibody, V domains shown)
VH: B19 VH with V68T, I70L
VL: B19 VL with D57G
B37: Hu50C5-18 (antibody, V domains shown)
VH: B19 VH with V68T, I70L
VL: B19 VL
B38: Hu50C5-21 (antibody, V domains shown)
VH: B19 VH with S30T, V68T, I70L
VL: B19 VL with V48I, D57G
B39: Hu50C5-23 (antibody, V domains shown)
VH: B19 VH with S30T, V68T, I70L
VL: B19 VL
B40: Hu50C5-24 (antibody, V domains shown)
VH: B19 VH with S30T, V68T, I70L
VL: B19 VL with D70Q
B41: Hu50C5-15 (antibody, V domains shown)
VH: B19 VH
VL: B19 VL with A43S, D70Q

Numbering of substitutions follows the chain as printed. “And” between values parts separate entries of the source, which are not always exact repeats. Equal values may be shown once.

As a reminder, the EC50 is the concentration that produces a half-maximal response.

One assay deals with T1, recombinant human GM-CSF protein (human, UniProt P04141 18-144). Nature of the assay: ELISA.
T1 sequence (P04141 18-144): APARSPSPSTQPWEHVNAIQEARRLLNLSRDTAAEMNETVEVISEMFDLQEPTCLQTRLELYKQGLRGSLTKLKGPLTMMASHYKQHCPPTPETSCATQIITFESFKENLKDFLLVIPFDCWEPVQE
With B1, the EC50 turned out to be 0.0196 nM.
Take B2: the 50% effective concentration (EC50) is 0.081 nM and 0.0923 nM.

A further assay addresses T1, recombinant human GM-CSF protein. Nature of the assay: ELISA. The source holds these as a separate data set. Background: In an ELISA, binding on a coated surface is turned into a signal by an enzyme label.
Take B3: the EC50 was found to be 0.0624 nM.
Turning to B4, the 50% effective concentration (EC50) worked out at 0.0384 nM.
On to B5, for which the EC50 worked out at 0.0873 nM.
Consider B6, for which the 50% effective concentration (EC50) was found to be 0.0954 nM.
The same measure, in the same setting: the value for B7 was 0.0907 nM; that for B8 was 0.0348 nM.
Turning to B9, the EC50 is 0.127 nM.
Take B10: the EC50 stood at 0.0424 nM.
Still for that read-out and setting: the value for B11 was 0.047 nM.
Turning to B12, the EC50 was 0.101 nM.
On to B13, for which the half-maximal effective concentration (EC50) was found to be 0.0384 nM.
Take B14: the EC50 is 0.0268 nM.
Turning to B15, the EC50 turned out to be 0.136 nM.
Regarding B16, the EC50 is 0.0736 nM.
As to B17, the concentration giving a half-maximal response (EC50) turned out to be 0.0977 nM.
Turning to B18, the concentration giving a half-maximal response (EC50) is 0.0411 nM.
B2: the EC50 is 0.092 nM and 0.0881 nM.

For a further assay the target is unchanged. Nature of the assay: ELISA. The source holds these as a separate data set.
For the molecule B19, the 50% effective concentration (EC50) is 3.52 nM.
Still for that read-out and setting: under B20 stands 1.03 nM; under B21, 3.24 nM; under B22, 0.534 nM.
Turning to B23, the EC50 worked out at 0.462 nM.
Consider B24, for which the EC50 amounted to 0.844 nM.
Take B25: the EC50 amounted to 0.568 nM.
With B26, the EC50 turned out to be 1.18 nM.
Still for that read-out and setting: under B27 stands 0.345 nM; under B28, 1.85 nM; under B29, 2.75 nM.
With B30, the EC50 came out at 1.94 nM.
Consider B31, for which the half-maximal effective concentration (EC50) was determined as 2.19 nM.
Take B32: the concentration for a half-maximal effect (EC50) amounted to 0.438 nM.

A further assay has the same target. As to the kind of experiment: ELISA. The source holds these as a separate data set.
In the case of B33, the half-maximal effective concentration (EC50) came to 0.46 nM.
For the molecule B34, the concentration giving a half-maximal response (EC50) was 0.889 nM.
For the molecule B35, the EC50 was found to be 0.272 nM.
As for B36, the EC50 turned out to be 0.215 nM.
Consider B37, for which the half-maximal effective concentration (EC50) was 0.612 nM.
In the case of B38, the half-maximal effective concentration (EC50) came to 0.339 nM.
As for B39, the EC50 was determined as 0.356 nM.
Take B40: the 50% effective concentration (EC50) was determined as 0.305 nM.
On to B41, for which the EC50 worked out at 2.72 nM.
